The source of these data is publication PMC11514443 (Structure (London, England : 1993), 2019).

The test has as its target MORC3-CW E431A mutant (human) (UniProt Q14149). Briefly: other fluorescence titration.

What is called Kd is the free concentration of one partner at which half of the binding sites on the other are occupied at equilibrium, for simple one-to-one binding.

MORC3-CW E431A mutant (human), sequence (Q14149 401-455 E431A): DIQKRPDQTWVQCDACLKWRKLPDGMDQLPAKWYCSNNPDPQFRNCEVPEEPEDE

Substance “NS1 peptide trimethylated at K229 (residues 222-230 of NS1)” gave a Kd of 57 µM. This lies in the double-digit micromolar range.
